The results in this text go back to patent US20020199219A1 (UNIVERSITY OF CALIFORNIA SAN DIEGO, published 2002).

The experiment has as its target T1, ABH1 polypeptide (Arabidopsis thaliana, UniProt Q9SIU2 1-848).
T1 construct: Tested in a yeast two-hybrid experiment and expressed in yeast cells; also called Arabidopsis CBP80 homolog
T1 sequence: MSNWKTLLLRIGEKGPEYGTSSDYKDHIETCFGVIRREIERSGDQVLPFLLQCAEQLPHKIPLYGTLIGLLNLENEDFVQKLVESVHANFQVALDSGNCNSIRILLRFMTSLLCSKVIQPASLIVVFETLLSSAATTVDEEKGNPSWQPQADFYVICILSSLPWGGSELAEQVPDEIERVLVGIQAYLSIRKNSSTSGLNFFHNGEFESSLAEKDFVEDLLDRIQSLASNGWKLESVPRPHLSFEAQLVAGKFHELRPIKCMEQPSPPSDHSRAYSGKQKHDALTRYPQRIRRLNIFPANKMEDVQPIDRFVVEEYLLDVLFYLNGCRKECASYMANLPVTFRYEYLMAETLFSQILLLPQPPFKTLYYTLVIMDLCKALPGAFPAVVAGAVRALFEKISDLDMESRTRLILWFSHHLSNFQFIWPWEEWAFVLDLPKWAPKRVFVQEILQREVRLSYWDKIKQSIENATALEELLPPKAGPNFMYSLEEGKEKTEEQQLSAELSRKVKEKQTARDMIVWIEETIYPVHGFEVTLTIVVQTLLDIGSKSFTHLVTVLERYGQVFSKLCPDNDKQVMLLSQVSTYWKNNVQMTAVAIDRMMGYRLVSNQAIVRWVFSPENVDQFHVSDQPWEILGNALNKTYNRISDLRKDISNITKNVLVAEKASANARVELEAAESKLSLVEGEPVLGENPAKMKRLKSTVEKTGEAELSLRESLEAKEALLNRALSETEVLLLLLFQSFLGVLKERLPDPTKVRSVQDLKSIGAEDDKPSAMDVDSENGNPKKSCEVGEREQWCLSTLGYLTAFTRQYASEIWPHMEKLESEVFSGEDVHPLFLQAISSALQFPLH
The experiment can be described thus: yeast two-hybrid.

B1: Arabidopsis CBP20 homolog (AtCBP20) (other, UniProt Q9XFD1 1-257, looked up)
chain: MASLFKEQAKLSAYRDRRFSGTQEEFDEALRASTTVYIGNVSFYTTEEQLYELFSRAGEIKKIIMGLDKNTKTPCGFCFVLFYSREDTEDAVKYISGTILDDRPIRVDFDWGFQEGRQWGRGRSGGQVRDEYRTDYDPARGGYGKLVQKELEAQRQLVDYGTGSLGAYPQAAPTNYGNGRRGGGNYGQGGQNRHGRGDYHRKRQRDDDRYGRDNSRRNTDHESRRDTDSDMRPEKNPRFRESGDSDDDGEDDRKRRS
notes: The limits of the construct and the two-hybrid fusion domains are not described
Consider B1, for which the binding result is “binds”.
